Source: paper doi:10.64898/2025.12.09.693212

Target: T1, yeast topo II (full-length) (Saccharomyces cerevisiae, UniProt P06786 1-1428)
T1 sequence: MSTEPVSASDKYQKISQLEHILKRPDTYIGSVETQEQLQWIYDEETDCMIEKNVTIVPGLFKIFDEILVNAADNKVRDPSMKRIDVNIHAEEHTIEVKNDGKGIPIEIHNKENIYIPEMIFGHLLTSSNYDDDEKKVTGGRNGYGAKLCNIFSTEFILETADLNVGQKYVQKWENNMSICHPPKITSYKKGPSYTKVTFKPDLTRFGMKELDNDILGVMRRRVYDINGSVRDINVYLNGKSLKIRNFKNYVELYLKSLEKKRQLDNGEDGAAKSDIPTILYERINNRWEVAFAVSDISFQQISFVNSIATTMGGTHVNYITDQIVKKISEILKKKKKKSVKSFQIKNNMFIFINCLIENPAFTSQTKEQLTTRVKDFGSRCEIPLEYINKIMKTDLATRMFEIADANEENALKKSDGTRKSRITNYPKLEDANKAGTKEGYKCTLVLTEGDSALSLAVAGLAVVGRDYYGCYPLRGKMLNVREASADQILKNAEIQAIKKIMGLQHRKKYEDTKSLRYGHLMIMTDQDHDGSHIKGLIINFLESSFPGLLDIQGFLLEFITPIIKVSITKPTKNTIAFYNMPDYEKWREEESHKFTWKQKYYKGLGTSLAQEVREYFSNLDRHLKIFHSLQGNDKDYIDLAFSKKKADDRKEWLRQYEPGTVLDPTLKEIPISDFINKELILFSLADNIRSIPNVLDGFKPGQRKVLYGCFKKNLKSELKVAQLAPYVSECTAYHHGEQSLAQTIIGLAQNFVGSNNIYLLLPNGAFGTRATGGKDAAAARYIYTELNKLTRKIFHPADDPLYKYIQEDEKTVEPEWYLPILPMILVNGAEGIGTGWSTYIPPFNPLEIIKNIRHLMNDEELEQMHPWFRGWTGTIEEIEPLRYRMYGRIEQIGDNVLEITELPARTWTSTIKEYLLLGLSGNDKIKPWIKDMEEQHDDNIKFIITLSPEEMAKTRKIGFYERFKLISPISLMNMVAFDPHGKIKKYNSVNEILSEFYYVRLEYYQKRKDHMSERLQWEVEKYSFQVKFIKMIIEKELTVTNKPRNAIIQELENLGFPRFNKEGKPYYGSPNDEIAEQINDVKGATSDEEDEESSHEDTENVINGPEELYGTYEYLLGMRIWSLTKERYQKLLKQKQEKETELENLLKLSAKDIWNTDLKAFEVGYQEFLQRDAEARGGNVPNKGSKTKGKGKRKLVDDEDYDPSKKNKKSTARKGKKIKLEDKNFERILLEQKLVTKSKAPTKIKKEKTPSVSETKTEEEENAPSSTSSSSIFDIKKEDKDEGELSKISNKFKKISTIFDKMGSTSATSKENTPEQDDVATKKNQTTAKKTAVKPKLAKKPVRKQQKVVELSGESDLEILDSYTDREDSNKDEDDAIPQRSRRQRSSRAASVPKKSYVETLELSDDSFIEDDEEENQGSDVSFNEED
Assay: EMSA

B1: 51 bp dsDNA (dsDNA)
DNA 1: TATTTTCTTGTTCTTTTACATCAACACAATGTGACCATTACCTGGTTATCA
DNA 2: TGATAACCAGGTAATGGTCACATTGTGTTGATGTAAAAGAACAAGAAAATA
For B1, the Kd was ~50 nM.
